The values below come from patent US20080023859A1, “Glycopeptides and Temperature-Responsive Micelles” (Toagosei Co., Ltd., priority 2003, published 2008).

A short description of this series: Measurement of micelle formation by dynamic light scattering (particle diameter). The class given is physicochemical. As to conditions: DLS in solution at various temperatures.

Protocol: The micelle formation was observed by measuring the particle diameter of glycopeptides using dynamic light scattering (DLS; HK-6600 manufactured by Otsuka Electronics Co., Ltd.).
For the solution of Compound 1, the temperature was varied between a temperature range of 15° C. to 35° C. for 15 minutes, the temperature variation was repeated, and the particle diameters were measured at 15° C. and 35° C..

In the case of “NH2-Val-Pro-Gly-Val-Gly-Val-Pro-Gly-Val-Gly-OH (H-VPGVGVPGVG-OH) [reference peptide molecule]”, the “particle diameter of aggregate (in words)” value is recorded as “very large particle diameter”.
